The chains are these.
B1: TPR 5TU (parent)
chain: GGAUCUUCUCGAUCUAACAAAAAAGACAAAUCUGCCACAAAGCUUGAGAGCAUCUUCGGAUGCAGAGGCGGCAGCCUUCGGUGGCGCGAUAGCGCCAACGUUCUCAACUAUGACACGCAAAACGCGUGCUCCGUUGAAUGGAGUUUAUCAUG

This sample holds only a part of the variants without activity. A value given as a limit tells only on which side of the number the result lay.

Variants of B1 are the subject of this data set. Kind of data set: polymerase ribozyme fitness, log enrichment relative to wild type (log ratio); higher = more active; in vitro selection for triplet polymerase activity. In short, it runs like this: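 Fitness is a logarithmic measure of how a genotype enriched relative to the wild type, with replicate averages weighted by inverse variance. The logarithm uses base 2, and enrichment came from Illumina sequencing of input and output libraries. Those libraries were PCR-built, transcribed mutants of each subunit of a heterodimeric triplet polymerase ribozyme, passed through one triplicate in vitro selection round that included frozen incubation at −7 °C, gel excision of extended constructs and streptavidin-bead capture. Genotypes were kept only if they had ≥10 input reads and ≥1 read per output.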
Turning to A17C A40G C54A G83A G124A, the “polymerase ribozyme fitness (log ratio)” value is at most -4.2.
The result for A16U C27G A28U U31C G74U U82A reads at most -4.2; that for A17G C27G A66G A107G A115C, at most -4.2; that for A17G C95U G141A, 0.672.
The result for A17C A28U U44C A52U G94U A97G A142G reads at most -4.2; that for A17C A47C C95U C116U, -0.195; that for A16G G46U, -1.19.
The result for A17G C85U A115U C125A U144G A150C reads at most -4.2.
A17C G50A G84U G143C U144G: the “polymerase ribozyme fitness (log ratio)” value was at most -4.2.
For A17C G48C C93G, the “polymerase ribozyme fitness (log ratio)” value is -3.01.
With A16U U53C A73G G94C A150C the figure was at most -4.2; with A16U G25C A52C C96U, -4.11; with A17C C95A C103G C108G, at most -4.2.
With A16U U53A G80U C85U G152U the figure was at most -4.2; with A16U A52G A64U U77A C87A G143C, at most -4.2.
The result for A17C A21U C51U G59C C95U A106U G136C U151G reads at most -4.2; that for A17C A28U G46U A98U A107G A113G G133U, at most -4.2.
With A16U C87A G100A, the “polymerase ribozyme fitness (log ratio)” value was at most -4.2.
With A16U A106G U144A the figure was -2.13; with A16U U55A A91G G117U, at most -4.2.
With A17C C57U U82C the figure was -0.0541; with A16U G58U C69U U78G G80C C96A G141U, at most -4.2.
With A17G C35A G67C C96U C114U C116U the figure was at most -4.2; with A16U U55G C85G C103U A121U, -4.13; with A16U C116A, -0.257.
A16U G68A C87A G94C G141A: the “polymerase ribozyme fitness (log ratio)” value was at most -4.2.
The result for A17G A23C A97U C114U reads at most -4.2; that for A17G C18G A40C C85G A106U G124U C125U, at most -4.2.
The result for A17G A21C U44A A91C C108U reads at most -4.2; that for A16G U33G U90G C114U G117U A138C A150G, at most -4.2.
With A17C A39U G58A C95A G141C the figure was -2.82.
For the variant A16U C18G A21G A22U C51U U53G G68A G81C, the “polymerase ribozyme fitness (log ratio)” value is at most -4.2.
With A17C G133A U144A A147C the figure was -3.99; with A17C U102A, -0.663; with A17G C32A C51A U55A A60C G74A G81A U90G C95A, at most -4.2.
The result for A17G A60G C85G A89U reads -2.31; that for A17C A47U G58A G83U G94A G126U, at most -4.2; that for A17G C57U C96U U127C C131A G133U U146C, at most -4.2.
The result for A17G C76U reads -0.119; that for A16U A150G, -2.95; that for A17C C38A U55G G86U C116G A122G, -2.93.
Turning to A17C A23U G59U G84A U90C U151A, the “polymerase ribozyme fitness (log ratio)” value is at most -4.2.
The result for A16U G88C reads at most -4.2; that for A16G U31A A39U C132U G136A, -3.4.
With A16U G50A C76U the figure was -3.4.
The result for A16U A19U A26C A37C G74C A89C G94A C108U A113G G136A reads at most -4.2; that for A17C A89U, 0.471; that for A16U G70C G81U A89G, at most -4.2.
Consider A16U A22U G117A C132A U151G, for which the “polymerase ribozyme fitness (log ratio)” value is at most -4.2.
Turning to A16U G50C U56A G84C A97U U101A A113C A119G G133U A137U, the “polymerase ribozyme fitness (log ratio)” value is at most -4.2.
Take A16U A23G U148A: the “polymerase ribozyme fitness (log ratio)” value was at most -4.2.
With A16U A39G A89C C95U G152C the figure was at most -4.2.
The result for A16U C27A A28U C54U C75U G92C G136U reads at most -4.2; that for A16U A41G A47C C76G G88C G94C A110C U134A G140A G141C A147C, at most -4.2; that for A17C A41U U56A C99U A121G A147G, -3.04.
With A16U A41G C51U G74C C95U C103U C118U G133A the figure was at most -4.2.
For A17C U82A C85A C93U, the “polymerase ribozyme fitness (log ratio)” value is at most -4.2.
With A17G C27A the figure was at most -4.2.
Regarding A17C A47C G94C, the “polymerase ribozyme fitness (log ratio)” value is -0.464.
With A17C C54A the figure was -1.11; with A16G G81A G83A C93U G128C U134G, at most -4.2.
With A17G G34A U56A G59A U78G the figure was at most -4.2; with A17C A26G A41C C54A C72U C87A G100C G143U, at most -4.2.
In the case of A17C C27A A52G A60U C69U C85A C95G C125A, the “polymerase ribozyme fitness (log ratio)” value was at most -4.2.
With A16U A47U U55A C87U the figure was -2.97; with A17C G74C C87U G92C C105G G136U, at most -4.2; with A16G G48U G133U, -3.99.
The result for A16G G86A reads -0.891.
A16U C18U U44G U82A C93U C99A A106G A142C: the “polymerase ribozyme fitness (log ratio)” value was at most -4.2.
Consider A17G C96A A97G U101C U148C, for which the “polymerase ribozyme fitness (log ratio)” value was -3.67.
For the variant A17G A29U G67U G100A C123G C132G, the “polymerase ribozyme fitness (log ratio)” value was at most -4.2.
The result for A16U C69A U145G reads -3.75; that for A16U C27U C57A C93A A107C C125A U146G, at most -4.2; that for A17G A20C A30G G46A G59U G67C G68U G70U C96G, at most -4.2.
As to A16U A52G U104G U134G, the “polymerase ribozyme fitness (log ratio)” value is at most -4.2.
As to A17G C35U C36U C95U, the “polymerase ribozyme fitness (log ratio)” value was at most -4.2.
The result for A16U C51A A73G C85U A122C reads at most -4.2; that for A17G A52U G83A C95U, -3.91; that for A17C A23U U104C, at most -4.2.
On to A17G C85A C129A, for which the “polymerase ribozyme fitness (log ratio)” value is -2.88.
With A16U A21G C85G C93A C116A A150U the figure was at most -4.2; with A17G A19U U53A U56G A60U C69G U111G A142G, at most -4.2.
As for A16U C32A C35G A47C G58C G68A G70U C96G G126C, the “polymerase ribozyme fitness (log ratio)” value is at most -4.2.
As for A16G U134A, the “polymerase ribozyme fitness (log ratio)” value is -3.15.

For the origin of these results see the RNAGym collection of RNA variant scans (doi:10.1073/pnas.2313332121).
